Measured values as given in patent US11306156.
“And” between values parts separate entries of the source, which are not always exact repeats. Equal values may be shown once. One block for each substance: values may come before it.

Assays:
[1] = molecular target: D3H44 light chain Q124R_T178R, N-terminal HA or FLAG tag; test: LCCA, L1:L2 DNA 1:9, SPR of light chain tags; competing light chain m19
[2] = molecular target: D3H44 light chain Q124E_V133E, N-terminal HA or FLAG tag; test: LCCA, L1:L2 DNA 1:9, SPR of light chain tags; competing light chain m14
[3] = molecular target: D3H44 light chain Q124R_Q160K_T178R, N-terminal HA or FLAG tag; test: LCCA, L1:L2 DNA 1:3, SPR of light chain tags; competing light chain m18
[4] = molecular target: D3H44 light chain Q124R_Q160K_T178R, N-terminal HA or FLAG tag; test: LCCA, L1:L2 DNA 1:9, SPR of light chain tags; competing light chain m18
[5] = molecular target: D3H44 light chain Q124E_V133E, N-terminal HA or FLAG tag; test: LCCA, L1:L2 DNA 1:3, SPR of light chain tags; competing light chain m14
[6] = molecular target: D3H44 light chain Q124E_S176L_T180E, N-terminal HA or FLAG tag; test: LCCA, L1:L2 DNA 1:9, SPR of light chain tags; competing light chain m12
[7] = molecular target: D3H44 light chain Q124R_T178R, N-terminal HA or FLAG tag; test: LCCA, L1:L2 DNA 1:3, SPR of light chain tags; competing light chain m19
[8] = molecular target: D3H44 light chain Q124E_S176L_T180E, N-terminal HA or FLAG tag; test: LCCA, L1:L2 DNA 1:3, SPR of light chain tags; competing light chain m12
[9] = molecular target: D3H44 light chain Q124R_T178R, N-terminal HA or FLAG tag; test: LCCA, L1:L2 DNA 1:9, SPR of light chain tags; competing light chain m11
[10] = molecular target: D3H44 light chain Q124E_T180E, N-terminal HA or FLAG tag; test: LCCA, L1:L2 DNA 1:3, SPR of light chain tags; competing light chain m15
[11] = molecular target: D3H44 light chain Q124E_T180E, N-terminal HA or FLAG tag; test: LCCA, L1:L2 DNA 1:3, SPR of light chain tags; competing light chain m10
[12] = molecular target: D3H44 light chain Q124E_Q160E_T180E, N-terminal HA or FLAG tag; test: LCCA, L1:L2 DNA 1:3, SPR of light chain tags; competing light chain m16
[13] = molecular target: D3H44 light chain Q124E_T180E, N-terminal HA or FLAG tag; test: LCCA, L1:L2 DNA 1:3, SPR of light chain tags; competing light chain m14
[14] = molecular target: D3H44 light chain Q124R_T178R, N-terminal HA or FLAG tag; test: LCCA, L1:L2 DNA 1:3, SPR of light chain tags; competing light chain m11
[15] = molecular target: D3H44 light chain Q124R_T178K, N-terminal HA or FLAG tag; test: as above
[16] = molecular target: D3H44 light chain Q124E_Q160E_T180E, N-terminal HA or FLAG tag; test: LCCA, L1:L2 DNA 1:9, SPR of light chain tags; competing light chain m12
[17] = molecular target: D3H44 light chain Q124R_Q160K_T178R, N-terminal HA or FLAG tag; test: LCCA, L1:L2 DNA 1:3, SPR of light chain tags; competing light chain m13
[18] = molecular target: D3H44 light chain T178R, N-terminal HA or FLAG tag; test: as above
[19] = molecular target: D3H44 light chain Q124K_T178R, N-terminal HA or FLAG tag; test: as above
[20] = molecular target: D3H44 light chain Q124E_Q160E_T180E, N-terminal HA or FLAG tag; test: LCCA, L1:L2 DNA 1:3, SPR of light chain tags; competing light chain m12
[21] = molecular target: D3H44 light chain Q124E_Q160E_T180E, N-terminal HA or FLAG tag; test: LCCA, L1:L2 DNA 1:9, SPR of light chain tags; competing light chain m10
[22] = molecular target: D3H44 light chain T178R, N-terminal HA or FLAG tag; test: LCCA, L1:L2 DNA 1:9, SPR of light chain tags; competing light chain m11
[23] = molecular target: D3H44 light chain Q124R_Q160K_T178R, N-terminal HA or FLAG tag; test: LCCA, L1:L2 DNA 1:3, SPR of light chain tags; competing light chain m20
[24] = molecular target: D3H44 light chain Q124E_Q160E_T180E, N-terminal HA or FLAG tag; test: LCCA, L1:L2 DNA 1:3, SPR of light chain tags; competing light chain m10
[25] = molecular target: D3H44 light chain Q124E_Q160E_T178E, N-terminal HA or FLAG tag; test: LCCA, L1:L2 DNA 1:3, SPR of light chain tags; competing light chain m14
[26] = molecular target: D3H44 light chain T178R, N-terminal HA or FLAG tag; test: LCCA, L1:L2 DNA 1:3, SPR of light chain tags; competing light chain m11
[27] = molecular target: D3H44 light chain Q124R_T178R, N-terminal HA or FLAG tag; test: LCCA, L1:L2 DNA 1:3, SPR of light chain tags; competing light chain m13
[28] = molecular target: D3H44 light chain Q124E_T180E, N-terminal HA or FLAG tag; test: LCCA, L1:L2 DNA 1:3, SPR of light chain tags; competing light chain m12

H1L1:H1L2 normalized median ratio [1]: 90 share of 100
H1L1:H1L2 normalized median scalar value ln(r1/f1) [1]: 2.25
H1L1:H1L2 normalized median ratio [2]: 13 share of 100
H1L1:H1L2 normalized median ratio [3]: 89 share of 100
H1L1:H1L2 normalized median scalar value ln(r1/f1) [3]: 2.06
H1L1:H1L2 normalized median ratio [4]: 87 share of 100
H1L1:H1L2 normalized median scalar value ln(r1/f1) [4]: 1.86
H1L1:H1L2 normalized median ratio [5]: 11 share of 100
H1L1:H1L2 normalized median ratio [6]: 10 share of 100
H1L1:H1L2 normalized median ratio [7]: 87 share of 100
H1L1:H1L2 normalized median scalar value ln(r1/f1) [7]: 1.9
H1L1:H1L2 normalized median ratio [8]: 13 share of 100
Substance: D3H44 Fab heavy chain L143E_K145T_Q179E_S188L, C-terminal ABD2-His6 tag

H1L1:H1L2 normalized median ratio [9]: 78 share of 100
H1L1:H1L2 normalized median scalar value ln(r1/f1) [9]: 1.29
H1L1:H1L2 normalized median ratio [10]: 30 share of 100
H1L1:H1L2 normalized median ratio [11]: 40 share of 100
H1L1:H1L2 normalized median ratio [12]: 17 share of 100
H1L1:H1L2 normalized median ratio [13]: 27 share of 100
H1L1:H1L2 normalized median ratio [14]: 91 share of 100
H1L1:H1L2 normalized median scalar value ln(r1/f1) [14]: 2.27
H1L1:H1L2 normalized median ratio [15]: 83 share of 100 and 33 share of 100
H1L1:H1L2 normalized median scalar value ln(r1/f1) [15]: 1.62
H1L1:H1L2 normalized median ratio [16]: 22 share of 100
H1L1:H1L2 normalized median ratio [17]: 73 share of 100
H1L1:H1L2 normalized median scalar value ln(r1/f1) [17]: 1
H1L1:H1L2 normalized median ratio [18]: 60 share of 100
H1L1:H1L2 normalized median scalar value ln(r1/f1) [18]: 0.41
H1L1:H1L2 normalized median ratio [19]: 70 share of 100
H1L1:H1L2 normalized median scalar value ln(r1/f1) [19]: 0.84
H1L1:H1L2 normalized median ratio [20]: 9 share of 100
Substance: D3H44 Fab heavy chain L143E_K145T_Q179E, C-terminal ABD2-His6 tag

H2L2:H2L1 normalized median ratio [21]: 87 share of 100
H2L2:H2L1 normalized median ratio [22]: 13 share of 100
H2L2:H2L1 normalized median ratio [1]: 9 share of 100
H2L2:H2L1 normalized median ratio [23]: 1 share of 100
H2L2:H2L1 normalized median ratio [11]: 96 share of 100
H2L2:H2L1 normalized median ratio [24]: 91 share of 100
H2L2:H2L1 normalized median ratio [12]: 92 share of 100
H2L2:H2L1 normalized median ratio [25]: 99 share of 100
H2L2:H2L1 normalized median ratio [13]: 97 share of 100
H2L2:H2L1 normalized median ratio [26]: 9 share of 100
H2L2:H2L1 normalized median ratio [15]: 8 share of 100
H2L2:H2L1 normalized median ratio [6]: 91 share of 100
H2L2:H2L1 normalized median ratio [17]: 3 share of 100
H2L2:H2L1 normalized median ratio [27]: 6 share of 100
H2L2:H2L1 normalized median ratio [18]: 4 share of 100
H2L2:H2L1 normalized median ratio [7]: 4 share of 100
H2L2:H2L1 normalized median ratio [28]: 94 share of 100
H2L2:H2L1 normalized median ratio [8]: 96 share of 100
Substance: D3H44 Fab heavy chain S186K, C-terminal ABD2-His6 tag
